The target of the experiment is T1, Flag-tagged Pds5b (wild type) phosphorylated by Nek2a and Cdk1/2-cyclin A2 (human, UniProt Q9NTI5 1-1447, phosphoserine at 1161 and 1166 (by Cdk1/2-cyclin A2) and at 1177, 1182 and 1209 (by Nek2a)).
T1 construct: Pds5b, human; insert by PCR on human cDNA; How fully each site was phosphorylated in these preparations was not measured; also called Pds5b-WT treated with these two kinases; Pds5b co-expressed with Nek2aΔMR and Δ86-cyclin A2
T1 sequence (looked up): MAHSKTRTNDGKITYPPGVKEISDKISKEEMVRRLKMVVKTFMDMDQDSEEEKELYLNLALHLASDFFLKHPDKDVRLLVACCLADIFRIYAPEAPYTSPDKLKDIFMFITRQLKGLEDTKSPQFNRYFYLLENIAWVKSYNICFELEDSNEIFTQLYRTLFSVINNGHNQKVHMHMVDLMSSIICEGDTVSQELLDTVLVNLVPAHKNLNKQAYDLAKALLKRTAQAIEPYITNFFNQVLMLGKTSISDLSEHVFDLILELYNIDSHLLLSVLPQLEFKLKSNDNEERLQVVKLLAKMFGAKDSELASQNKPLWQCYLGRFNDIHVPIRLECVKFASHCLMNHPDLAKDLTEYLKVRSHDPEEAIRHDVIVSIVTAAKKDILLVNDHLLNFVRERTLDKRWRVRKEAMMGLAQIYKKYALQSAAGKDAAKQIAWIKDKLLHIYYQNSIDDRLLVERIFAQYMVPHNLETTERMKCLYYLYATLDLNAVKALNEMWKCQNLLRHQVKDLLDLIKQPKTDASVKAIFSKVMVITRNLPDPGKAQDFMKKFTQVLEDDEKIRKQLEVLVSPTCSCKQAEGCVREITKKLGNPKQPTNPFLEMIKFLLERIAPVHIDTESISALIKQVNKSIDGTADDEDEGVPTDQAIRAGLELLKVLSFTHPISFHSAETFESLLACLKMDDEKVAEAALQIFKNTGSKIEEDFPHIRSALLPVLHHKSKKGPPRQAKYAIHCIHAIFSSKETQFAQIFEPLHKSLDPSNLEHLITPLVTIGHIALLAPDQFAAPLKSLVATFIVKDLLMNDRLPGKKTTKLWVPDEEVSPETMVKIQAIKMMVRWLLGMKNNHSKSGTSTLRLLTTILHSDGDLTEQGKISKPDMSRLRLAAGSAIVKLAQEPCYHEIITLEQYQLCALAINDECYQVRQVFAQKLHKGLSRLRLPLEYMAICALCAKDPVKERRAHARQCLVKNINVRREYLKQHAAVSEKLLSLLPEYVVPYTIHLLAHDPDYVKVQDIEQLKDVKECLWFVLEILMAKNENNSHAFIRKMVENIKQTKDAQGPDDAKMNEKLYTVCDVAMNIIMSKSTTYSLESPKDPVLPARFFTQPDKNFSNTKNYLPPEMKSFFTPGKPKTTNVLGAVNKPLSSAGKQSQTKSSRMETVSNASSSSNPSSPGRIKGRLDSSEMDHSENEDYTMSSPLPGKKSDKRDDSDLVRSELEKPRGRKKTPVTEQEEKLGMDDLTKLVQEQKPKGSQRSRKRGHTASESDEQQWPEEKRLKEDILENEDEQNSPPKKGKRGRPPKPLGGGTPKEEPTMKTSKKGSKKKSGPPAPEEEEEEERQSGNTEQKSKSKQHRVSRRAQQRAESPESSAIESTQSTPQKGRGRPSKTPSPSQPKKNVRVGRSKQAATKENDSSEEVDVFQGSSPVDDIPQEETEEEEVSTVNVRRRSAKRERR
The experiment in a line: pull-down; Flag-Pds5b variants affinity-purified from Nek2a- and cyclin A2-free prometaphase cells, incubated on the beads with recombinant Nek2a and/or Cdk1/2-cyclin A2 and ATP, washed, then incubated with recombinant Wapl (2 µl) and sororin (0.3 µg) in 15 µl cleavage buffer without ATP, 20 min at 37 °C; immunoblotting. Particulars: both partners purified.

B1: recombinant human Wapl (natural protein, UniProt Q7Z5K2 1-1190, looked up)
chain: MTSRFGKTYSRKGGNGSSKFDEVFSNKRTTLSTKWGETTFMAKLGQKRPNFKPDIQEIPKKPKVEEESTGDPFGFDSDDESLPVSSKNLAQVKCSSYSESSEAAQLEEVTSVLEANSKISHVVVEDTVVSDKCFPLEDTLLGKEKSTNRIVEDDASISSCNKLITSDKVENFHEEHEKNSHHIHKNADDSTKKPNAETTVASEIKETNDTWNSQFGKRPESPSEISPIKGSVRTGLFEWDNDFEDIRSEDCILSLDSDPLLEMKDDDFKNRLENLNEAIEEDIVQSVLRPTNCRTYCRANKTKSSQGASNFDKLMDGTSQALAKANSESSKDGLNQAKKGGVSCGTSFRGTVGRTRDYTVLHPSCLSVCNVTIQDTMERSMDEFTASTPADLGEAGRLRKKADIATSKTTTRFRPSNTKSKKDVKLEFFGFEDHETGGDEGGSGSSNYKIKYFGFDDLSESEDDEDDDCQVERKTSKKRTKTAPSPSLQPPPESNDNSQDSQSGTNNAENLDFTEDLPGVPESVKKPINKQGDKSKENTRKIFSGPKRSPTKAVYNARHWNHPDSEELPGPPVVKPQSVTVRLSSKEPNQKDDGVFKAPAPPSKVIKTVTIPTQPYQDIVTALKCRREDKELYTVVQHVKHFNDVVEFGENQEFTDDIEYLLSGLKSTQPLNTRCLSVISLATKCAMPSFRMHLRAHGMVAMVFKTLDDSQHHQNLSLCTAALMYILSRDRLNMDLDRASLDLMIRLLELEQDASSAKLLNEKDMNKIKEKIRRLCETVHNKHLDLENITTGHLAMETLLSLTSKRAGDWFKEELRLLGGLDHIVDKVKECVDHLSRDEDEEKLVASLWGAERCLRVLESVTVHNPENQSYLIAYKDSQLIVSSAKALQHCEELIQQYNRAEDSICLADSKPLPHQNVTNHVGKAVEDCMRAIIGVLLNLTNDNEWGSTKTGEQDGLIGTALNCVLQVPKYLPQEQRFDIRVLGLGLLINLVEYSARNRHCLVNMETSCSFDSSICSGEGDDSLRIGGQVHAVQALVQLFLERERAAQLAESKTDELIKDAPTTQHDKSGEWQETSGEIQWVSTEKTDGTEEKHKKEEEDEELDLNKALQHAGKHMEDCIVASYTALLLGCLCQESPINVTTVREYLPEGDFSIMTEMLKKFLSFMNLTCAVGTTGQKSISRVIEYLEHC
notes: Wapl, human; insert by PCR on human cDNA; Isolated from mitotically arrested cells; also called GFP-SUMOstar-Wapl; source: Hek293T, transiently transfected, taxol-arrested; not shown: GFP, N-terminal, cleaved; SUMOstar, N-terminal, cleaved
With B1, the binding result is on record as “binds”.

These data come from PMC11535040, “Requirement of Nek2a and cyclin A2 for Wapl-dependent removal of cohesin from prophase chromatin” (The EMBO Journal, 2024).
